Test results as given in paper PMC4046772, “Different Dynamical Effects in Mesophilic and Hyperthermophilic Dihydrofolate Reductases” (Journal of the American Chemical Society, 2014).

Columns and labels:
[1] = substrate: NC(=O)C1=CN([C@@H]2O[C@H](COP(=O)(O)OP(=O)(O)OC[C@H]3O[C@@H](n4cnc5c(N)ncnc54)[C@H](OP(=O)(O)O)[C@@H]3O)[C@@H](O)[C@H]2O)C=CC1; experiment: steady-state kinetics; assay type: biochemical, Thermotoga maritima; conditions: 45 °C, light enzyme (natural isotope abundance), co-substrate dihydrofolate, steady-state kinetics at pH 7
[2] = substrate: Nc1nc2c(c(=O)[nH]1)N=C(CNc1ccc(C(=O)N[C@@H](CCC(=O)O)C(=O)O)cc1)CN2; experiment: steady-state kinetics; assay type: biochemical, Thermotoga maritima; conditions: 45 °C, light enzyme (natural isotope abundance), co-substrate NADPH, steady-state kinetics at pH 7

B1: TmDHFR (Thermotoga maritima MSB8) (protein)
chain: MAKVIFVLAMDVSGKIASSVESWSSFEDRKNFRKITTEIGNVVMGRITFEEIGRPLPERLNVVLTRRPKTSNNPSLVFFNGSPADVVKFLEGKGYERVAVIGGKTVFTEFLREKLVDELFVTVEPYVFGKGIPFFDEFEGYFPLKLLEMRRLNERGTLFLKYSVEKSHR
notes: purified homodimer, natural isotope abundance (light) enzyme; procedures in supplement
Work on B1 yielded a Km [1] of 1 µM and a Km [2] of 1 µM.
